# In the DeepSol protein solubility set:
# Assay: soluble on expression in E. coli; label from the status in PepcDB or PDB records
row,Sequence,soluble on expression in E. coli
1,PKFHQAFAMINDAISDQSTFRLSCNEALIHRITPTNTISICADTDLPSLLNDLRLKQIDLIISPTTIHNPSFISESVFEEPMVVICRQDHPRIAGKIEQERFYSEKHCRFVGDEDFPVSNTEIHQPGLQERDVEMMTTSLSGMMLYVAKHDCLGVLPLSLAQKWQSALNLQVIQTPMLSEPVSYKLIFHKRDESSTSHQRLRAWARDQFATGLNA,not soluble
2,MGSDKIHHHHHHMKNFVVTTSHKPDREQVMKAKELAEKLGTIYVSRRRLKEFKVDFYYVVEKNRISIKWPGGEFFFHPSSAILRMRNIRSGQKDYLIESLQPEGNEIVLDTTFGLGSEAILMAAFLPEGKVIGLEGSIHIYTIVKYGMENFETDIRWLKDALKRIELYHANFKEYIRSQPDNSFDVVYCDPMFENPVYESSAMNPLRPFAVYDTVNEEDIEEMLRIAKKKVILKSHVKDSLFKRIRVDELKGSRKSGVLYGVIYKR,not soluble
3,MKKLEVKDLKENFFEAIGKEWMLVTAGTKEKFNTMTASWGGIGWLWNKPVAFVFVRPERYTYEFIEKSDYLTLSFLGEANKKIHAVCGSKSGRDTDKVKATGLKPVFTEQGNVLFEQARLSLEGRKLYADNIKPECFLDKESLEKWYDDAHGGFHKMYIVEIENIWEGD,not soluble
4,MGHHHHHHSHMELKQSLSTHLEAEKPLRRYGAVEETAWKTERLGRNQLDIISMAETTMMPEEIELEMAKIQRLREVLVRRESELRFMMDDIQLCKDIMDLKQELQNLVAIPEKEKTKLQKQREDELIQKIHKLVQKRDFLVDDAEVERLREQEEDKEMADFLRIKLKPLDKVTKSPASSRAEKKAEPPPSKPTVAKTGLALIKDCCGATQCNIM,soluble
5,KLNRAIGVIDSGVGGLTVAKELIRQLPKERIIYLGDTARCPYGPRSREEVRQFTWEMTEHLLDLNIKMLVIACNTATAVVLEEMQKQLPIPVVGVIHPGSRTALKVTNTYHVGIIGTIGTVKSGAYEEALKSINNRVMVESLACPPFVELVESGNFESEMAYEVVRETLQPLKNTDIDTLILGCTHYPILGPVIKQVMGDKVQLISSGDETAREVSTILYHSKMLNEGEEQSDHLFLTTGKIGLFKEIASKWFGQPIENVKHIHLEK,soluble
6,DYYFDSYDHYGIHEEMLQDTVRTLSYRNAIIQNKDLFKDKIVLDVGCGTGILSMFAAKHGAKHVIGVDMSSIIEMAKELVELNGFSDKITLLRGKLEDVHLPFPKVDIIISEWMGYFLLYESMMDTVLYARDHYLVEGGLIFPDKCSIHLAGLEDSQYKDEKLNYWQDVYGFDYSPFVPLVLHEPIVDTVERNNVNTTSDKLIEFDLNTVKISDLAFKSNFKLTAKRQDMINGIVTWFDIVFPAPKGKRPVEFSTGPHAPYTHWKQTIFYFPDDLDAETGDTIEGELVCSPNEKNNRDLNIKISYKFESNGIDGNSRSRKNEGSYLMH,soluble
7,MMFDRRFFALVVLLCVSAVRSTEDASDDELNYEMDEGVVVLTDKNFDAFLKKNPSVLVKFYAPWCGHCKHLAPEYEKASSKVSIPLAKVDATVETELGKRFEIQGYPTLKFWKDGKGPNDYDGGRDEAGIVEWVESRVDPNYKPPPEEVVTLTTENFDDFISNNELVLVEFYAPWCGHCKKLAPEYEKAAQKLKAQGSKVKLGKVDATIEKDLGTKYGVSGYPTMKIIRNGRRFDYNGPREAAGIIKYMTDQSKPAAKKLPKLKDVERFMSKDDVTIIGFFATEDSTAFEAFSDSAEMLREEFKTMGHTSDPAAFKKWDAKPNDIIIFYPSLFHSKFEPKSRTYNKAAATSEDLLAFFREHSAPLVGKMTKKNAATRYTKKPLVVVYYNADFSVQYREGSEYWRSKVLNIAQKYQKDKYKFAVADEEEFAKELEELGLGDSGLEHNVVVFGYDGKKYPMNPDEFDGELDENLEAFMKQISSGKAKAHVKSAPAPKDDKGPVKTVVGSNFDKIVNDESKDVLIEFYAPWCGHCKSFESKYVELAQALKKTQPNVVLAKMDATINDAPSQFAVEGFPTIYFAPAGKKSEPIKYSGNRDLEDLKKFMTKHGVKSFQKKDEL,not soluble
8,MKLLKTKNCLYYRNGDNKLSEYQLLTQFNPAFINKKIKMCEFQIESMYHMSASTTTCDEIMGVVSVSYPIEKLVIKIIETKAGLQNYKNRSINNMALLKKVLNHYTEKEQKQVVKYMRSNGRYKPYNVIERLQVDLYQASIKQRSERQKQRNTAIENSKIARVNAYHQSSYVKVV,not soluble
9,MSVATATMPQQQNNFAQTLSQSSSTASAPAPTSAPVTTPAPGSRGAALFGGVFHRGFFSKPVERTEEENYRYLMALDR,not soluble
10,MNGIHDVGGMDGFGKVMYVKEEEDIYFTHDWERLALGLVAGCMAQGLGMKAFDEFRIGIELMRPVDYLTSSYYGHWIATVAYNLVDTGVLDEKELDERTEVFSKKPDTKIPRREDPALVKLVEKALNDGLSPLREISASPRFKVGERIKTKNIHPTGHTRFPRYARDKYGVIDEVYGAHVFPDDAAHRKGENPQYLYRVRFEAEELWGYKQKDSVYIDLWESYMEPVSH,soluble
11,HKPWRAEYAKSSRSSCKTCKSVINKENFRLGKLVQSTHFDGIMPMWNHASCILKKTKQIKSVDDVEGIESLRWEDQQKIRKYVESGAGSNTSTSTGTSTSS,soluble
12,SGIMHQINNVYSLTPLSLPMELTPSCNEFYLKTWSEWEKNGTPGEQRNIAFNRLKICLQNQEAELNLSELDLKTLPDLPPQITTLEIRKNLLTHLPDLPPMLKVIHAQFNQLESLPALPETLEELNAGDNKIKELPFLPENLTHLRVHNNRLHILPLLPPELKLLVVSGNRLDSIPPFPDKLEGLALANNFIEQLPELPFSMNRAVLMNNNLTTLPESVLRLAQNAFVNVAGNPLSGHT,not soluble
13,MSVSLEQTLGFRIKVTNVLDVVTEGRLYSFNSSNNTLTIQTTKKNQSPQNFKVIKCTFIKHLEVIGDKPSFNSFKKQQIKPSYVNVERVEKLLKESVIASKKKELLRGKGVSAEGQFIFDQIFKTIGDTKWVAKDIIILDDVKVQPPYKVEDIKVLHEGSNQSITLIQRIVERSWEQLEQDDGRKGG,soluble
14,MSRTWIRNPLAIFTANGLDAAGGLVVEDGRIVELLGAGQQPAQPCASQFDASRHVVLPGLVNTHHHFYQTLTRAWAPVVNQPLFPWLKTLYPVWARLTPEKLELATKVALAELLLSGCTTAADHHYLFPGGLEQAIDVQAGVVEELGMRAMLTRGSMSLGEKDGGLPPQQTVQEAETILADSERLIARYHQRGDGARVQIALAPCSPFSVTPEIMRASAEVAARHDVRLHTHLAETLDEEDFCLQRFGLRTVDYLDSVGWLGPRTWLAHGIHFNAEEIRRLGEAGTGICHCPSSNMRLASGICPTVELEAAGAPIGLGVDGSASNDASNMILEARQALYLQRLRYGAERITPELALGWATRGSARLLGRSDIGELAPGKQADLALFKLDELRFSGSHDPLSALLLCAADRADRVMVGGAWRVVDGAVEGLDLAALIARHRAAASALIAG,not soluble
15,MGSDKIHHHHHHMEIKQLKEGLEGKVDFSLEYLREKPRQRAHMVASLLDDFFQPLSQHVLLEERISIMIRRGYVSRNLQDGSLNQHLQNGYERVMSGSLQSYKFRNVLTTATCLSLIGCSGSGKSSTLDRILATYPQVIYHEKHNFFQLSYLKIECPNNGSQQSLCLNFFREVDKRLGTKYESDYGGKRHGVPTLLALMSQVANQRAIGVLVIDEIQRLKIRKAVGREQMLEFFVELVNTVGIPVILVGTPKARPLFEIELQSARRTTGIGSLYWQPMPQYPDNPAERSEWEAFTNKLWRYQWLTRRDEVLTDEIRDCWYELSQGVLDIVVKLFVLAQLRAIASKLERITVKVLRSVYETELKPVHPMLHAIRRGNPNLIAKYSDLRIEDIDKRLLTLHQKIQALPEEPELPFSNNEQAMRLYNLLVQMDCRSDLLIPLVEKIFIERPKLTLRNMMPIVLEWYENGKEQPTNAPKPAKAALVKRTDWNTLESDDLRFIYSQVGKSESIYEALKDNGLVLDLKKVN,not soluble
16,MSLKPTIYDIAKKANVSKSTVSRVLNNQPNISDKAKASVLQAIKELNYEPSKIARGLSGNGFDAILALSHRTSHTTYGNPFFSDVIQSISAVSEQNNFDLILQTAKTPEEELEKCAKKIQEKMIRGIIILSSTMDETLLFELDQYNIPIVVIGKVGNDYTNIYSVDTDNFQDSYDLVETLIKNGHRHIGCLHAPTEVYVSNDRLNGYRQCLFDHHLDIRNEWIIDGGFRLEDSMAAMNDLMKLRERPTAIFSTDALKSLSIYKVAEQSGKQIPDDLSIAGFSDPLLSSLFSPQLTRIDIPTNQLGIKATELLFQLIHHQYPEEKRIILSTEITLTDSIEGHHHHHH,not soluble
